Experimental data as given in US20100292181.

Legend:
[1] = molecular target: T1, Synthetic peptide S3 conjugated to a penetratin peptide
T1 chain: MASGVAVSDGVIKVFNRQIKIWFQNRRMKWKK

[2] = molecular target: GST-tagged recombinant human cofilin
GST-tagged recombinant human cofilin, sequence (chain, as listed by the source): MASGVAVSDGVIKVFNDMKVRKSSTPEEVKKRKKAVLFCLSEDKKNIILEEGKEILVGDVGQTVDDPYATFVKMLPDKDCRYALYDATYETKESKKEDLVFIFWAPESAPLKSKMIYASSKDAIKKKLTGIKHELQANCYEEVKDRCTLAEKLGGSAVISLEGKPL

B1: purified LIMK1 (protein)
chain: GSSARQKPVLRSCSIDRSPGAGSLGSPASQRKDLGRSESLRVVCRPHRIFRPSDLIHGEVLGKGCFGQAIKVTHRETGEVMVMKELIRFDEETQRTFLKEVKVMRCLEHPNVLKFIGVLYKDKRLNFITEYIKGGTLRGIIKSMDSQYPWSQRVSFAKDIASGMAYLHSMNIIHRDLNSHNCLVRENKNVVVADFGLARLMVDEKTQPEGLRSLKKPDRKKRYTVVGNPYWMAPEMINGRSYDEKVDVFSFGIVLCEIIGRVNADPDYLPRTMDFGLNVRGFLDRYCPPNCPPSFFPITVRCCDLDPEKRPSFVKLEHWLETLRMHLAGHLPLGPQLEQLDRGFWETYRRGESG
cofilin phosphorylation in the in vitro LIMK1 kinase assay (western blot for phospho-cofilin ser3) [1]: S3 inhibited cofilin phosphorylation by LIMK1 | cofilin phosphorylation in the in vitro LIMK1 kinase assay (western blot for phospho-cofilin ser3) [2]: the phosphorylation of cofilin by LIMK1
